Tests used:
Type in all cases: cell-based
BE = test: PrestoBlue cell viability, anti-IGF-1R antibody with U0126, BE (melanoma); settings: 48 h
Experimental: (§1) Cells were incubated in 96 well tissue culture plates and cell viability was measured by PrestoBlue cell viability assay (Invitrogen, CA, USA) according to manufacturer's instructions. Fluorescence was measured with excitation at 560 nm and emission at 590 nm. Cell number was calculated from standard curves of fluorescence measurements from known numbers of cells. Triplicate cultures were performed on all experiments.
(§2) The effects of anti-IGF-1R antibodies/MEK inhibitor combination treatment on viability of different types of tumor cells were investigated using PrestoBlue cell viability assay (Invitrogen, CA, USA) according to manufacturer's instructions. (Table 3).
(§3) Cells were incubated in serum free medium for 12 h followed by pretreatment for 60 min without or with 0.5, 1, 3 or 5 μM of the ERK inhibitor U0126, and then treated without or with 100 ng/ml anti-IGF-1R antibodies (Figitumumab or αIR-3 (Calbiochem, US). Cells were incubated in 96 well tissue culture plates for 48 hours and cell viability was measured by PrestoBlue cell viability assay. Fluorescence was measured with excitation at 560 nm and emission at 590 nm. Cell number was calculated from standard curves of fluorescence measurements from known numbers of cells. Triplicate cultures were performed on all experiments. The inhibition induced by anti-IGF-1R antibodies treated cells was calculated as percentage of untreated cells.

H1703 = test: PrestoBlue cell viability, anti-IGF-1R antibody with U0126, H1703 (lung cancer); settings: 48 h
Experimental: as §1, §2, §3

PC-3 = test: PrestoBlue cell viability, anti-IGF-1R antibody with U0126, PC-3 (prostate carcinoma); settings: PC-3 cells, 48 h
Experimental: as §1, §2, §3

ZR75-1 = test: PrestoBlue cell viability, anti-IGF-1R antibody with U0126, ZR75-1 (breast carcinoma); settings: ZR75-1 cells, 48 h
Experimental: as §1, §2, §3

IGF-1R = target: T1, IGF-1R (Homo sapiens, UniProt P08069); test: IGF-1R downregulation in ES cell lines (western blot)
T1 construct: all the ES cell lines tested expressed IGF-1R; endogenous in cells; host or cells: Ewing's sarcoma cell lines SKES, RDES, CADO, A673, SKNMC
Experimental: FIG. 2A-FIG. 2D. […] (A) Cells incubated in serum free medium for 12 h were treated with 0, 0.1 or 1 μg/ml CP for 24 h. Protein lysates were analyzed by WB for IGF-1R and GAPDH as a loading control. […] Protein lysates were analyzed by WB for IGF-1R and GAPDH as a loading control. Signals were quantified by densitometry, normalized to GAPDH and expressed as a percentage of the IGF-1R at 0 h. Data correspond to the mean±SEM from three independent experiments. […] IGF-1R was immunoprecipitated from lysates and analyzed by WB (IB) for ubiquitination (Ub) and IGF-1R as a loading control. Molecular weight markers in KDa are indicated to the left of the panels. (D) β-Arrestin1 (β-arr1) was immunoprecipitated from cell lysates prepared as for (C). Immunoprecipitated proteins were analyzed by WB for IGF-1R. The whole lysates were analyzed by WB for GAPDH as a loading control.
Appropriate primary antibody was incubated overnight at 4° C.
Given that β-arrestin1 (β-arr1) is a key protein involved in IGF-1R ubiquitination, we also investigated ligand induced IGF-1R/β-arr1 association.

DFB = test: PrestoBlue cell viability, anti-IGF-1R antibody with U0126, DFB (melanoma); settings: 48 h
Experimental: as §1, §2, §3

[1] = U0126 0 μM (60 min pretreatment)
[2] = U0126 0.5 μM (60 min pretreatment)
[3] = U0126 1 μM (60 min pretreatment)
[4] = U0126 3 μM (60 min pretreatment)
[5] = U0126 5 μM (60 min pretreatment)

Rate of receptor degradation (IGF-1R; A673 cells, time-response): very fast
B1: CP-751,871: anti-IGF-1R antibody figitumumab (Pfizer), IGF-1R antagonist (antibody, chains of the INN, looked up)
heavy: EVQLLESGGGLVQPGGSLRLSCTASGFTFSSYAMNWVRQAPGKGLEWVSAISGSGGTTFYADSVKGRFTISRDNSRTTLYLQMNSLRAEDTAVYYCAKDLGWSDSYYYYYGMDVWGQGTTVTVSSASTKGPSVFPLAPCSRSTSESTAALGCLVKDYFPEPVTVSWNSGALTSGVHTFPAVLQSSGLYSLSSVVTVPSSNFGTQTYTCNVDHKPSNTKVDKTVERKCCVECPPCPAPPVAGPSVFLFPPKPKDTLMISRTPEVTCVVVDVSHEDPEVQFNWYVDGVEVHNAKTKPREEQFNSTFRVVSVLTVVHQDWLNGKEYKCKVSNKGLPAPIEKTISKTKGQPREPQVYTLPPSREEMTKNQVSLTCLVKGFYPSDIAVEWESNGQPENNYKTTPPMLDSDGSFFLYSKLTVDKSRWQQGNVFSCSVMHEALHNHYTQKSLSLSPG
light: DIQMTQFPSSLSASVGDRVTITCRASQGIRNDLGWYQQKPGKAPKRLIYAASRLHRGVPSRFSGSGSGTEFTLTISSLQPEDFATYYCLQHNSYPCSFGQGTKLEIKRTVAAPSVFIFPPSDEQLKSGTASVVCLLNNFYPREAKVQWKVDNALQSGNSQESVTEQDSKDSTYSLSSTLTLSKADYEKHKVYACEVTHQGLSSPVTKSFNRGEC
Percentage inhibition of antibody treated cells (100 ng/ml) (BE; [1]): 22%
Percentage inhibition of antibody treated cells (100 ng/ml) (BE; [2]): 27%
Percentage inhibition of antibody treated cells (100 ng/ml) (BE; [3]): 32%
Percentage inhibition of antibody treated cells (100 ng/ml) (BE; [4]): 45%
Percentage inhibition of antibody treated cells (100 ng/ml) (BE; [5]): 55%
Percentage inhibition of antibody treated cells (100 ng/ml) (H1703; [1]): 10%
Percentage inhibition of antibody treated cells (100 ng/ml) (H1703; [2]): 15%
Percentage inhibition of antibody treated cells (100 ng/ml) (H1703; [3]): 25%
Percentage inhibition of antibody treated cells (100 ng/ml) (H1703; [4]): 28%
Percentage inhibition of antibody treated cells (100 ng/ml) (H1703; [5]): 32%
Percentage inhibition of antibody treated cells (100 ng/ml) (PC-3; [1]): 22%
Percentage inhibition of antibody treated cells (100 ng/ml) (PC-3; [2]): 24%
Percentage inhibition of antibody treated cells (100 ng/ml) (PC-3; [3]): 32%
Percentage inhibition of antibody treated cells (100 ng/ml) (PC-3; [4]): 45%
Percentage inhibition of antibody treated cells (100 ng/ml) (PC-3; [5]): 52%
Percentage inhibition of antibody treated cells (100 ng/ml) (ZR75-1; [1]): 5%
Percentage inhibition of antibody treated cells (100 ng/ml) (ZR75-1; [2]): 9%
Percentage inhibition of antibody treated cells (100 ng/ml) (ZR75-1; [3]): 12%
Percentage inhibition of antibody treated cells (100 ng/ml) (ZR75-1; [4]): 12%
Percentage inhibition of antibody treated cells (100 ng/ml) (ZR75-1; [5]): 15%
IGF-1R downregulation (IGF-1R; 100 ng/ml or 1 μg/ml, 24 h, serum starved, all ES cell lines): downregulate IGF-1R in a dose dependent manner
Receptor degradation compared with IGF-1 (time-response) (IGF-1R; SKES, RDES, CADO and SKNMC, molar concentration approximately 10 fold less than IGF-1): more efficient at inducing receptor degradation
Percentage inhibition of antibody treated cells (100 ng/ml) (DFB; [1]): 15%
Percentage inhibition of antibody treated cells (100 ng/ml) (DFB; [2]): 17%
Percentage inhibition of antibody treated cells (100 ng/ml) (DFB; [3]): 24%
Percentage inhibition of antibody treated cells (100 ng/ml) (DFB; [4]): 45%
Percentage inhibition of antibody treated cells (100 ng/ml) (DFB; [5]): 55%

From patent US20140335077A1, “Compositions and Methods for the Treatment of Cancer Using IGF-IR Antagonists and MAPK/ERK Inhibitors” (priority 2013, published 2014)
